According to paper PMC7113306 (2020):
Where “and” joins values, the source holds several entries; their conditions need not be identical. Equal values may be shown once.

Experiments:
Assay in all cases: SPR
[1] = biological target: T1, ALK1-Fc (ALK1 extracellular domain-Fc fusion protein) (UniProt P37023 22-118)
[2] = biological target: T2, ALK1 extracellular domain (ALK1 ECD) (human, UniProt P37023 22-118)
[3] = biological target: T1, ALK1-Fc (ALK1 extracellular domain-Fc …); remark: listed apart in the source
[4] = biological target: T2, ALK1 extracellular domain (ALK1 ECD); remark: listed apart in the source
[5] = biological target: T3, ALK2-Fc (UniProt Q04771 21-123)
T3 chain: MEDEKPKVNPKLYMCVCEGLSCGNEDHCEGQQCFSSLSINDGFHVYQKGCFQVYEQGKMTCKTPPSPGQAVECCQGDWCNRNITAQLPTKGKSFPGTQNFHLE

T2 sequence (P37023 22-118): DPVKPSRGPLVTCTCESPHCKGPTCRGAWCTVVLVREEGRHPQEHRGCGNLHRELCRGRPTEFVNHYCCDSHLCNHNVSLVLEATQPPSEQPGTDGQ
T1 sequence (P37023 22-118): as above

B1: pro-BMP10 (prodomain-bound BMP10) (complex)
chain 1: SPIMNLEQSPLEEDMSLFGDVFSEQDGVDFNTLLQSMKDEFLKTLNLSDIPTQDSAKVDPPEYMLELYNKFATDRTSMPSANIIRSFKNEDLFSQPVSFNGLRKYPLLFNVSIPHHEEVIMAELRLYTLVQRDRMIYDGVDRKITIFEVLESKGDNEGERNMLVLVSGEIYGTNSEWETFDVTDAIRRWQKSGSSTHQLEVHIESKHDEAEDASSGRLEIDTSAQNKHNPLLIVFSDDQSSDKERKEELNEMISHEQLPELDNLGLDSFSSGPGEEALLQMRSNIIYDSTARIRR
chain 2: NAKGNYCKRTPLYIDFKEIGWDSWIIAPPGYEAYECRGVCNYPLAEHLTPTKHAIIQALVHLKNSQKASKACCVPTKLEPISILYLDKGVVTYKFKYEGMAVSECGCR
modifications: furin-processed; prodomain non-covalently bound to the disulfide-linked GF-domain dimer; secreted from HEK EBNA cells. Limits are from the UniProt PROPEP and CHAIN features.
**Q.** B1 was tested. Which koff [1] did it give?
**A.** The koff was 3.44e-05 s⁻¹.

**Q.** What about the koff [2] of the same binder?
**A.** Its koff is 5.63e-05 s⁻¹.

**Q.** What about the Kd [3] of the same binder?
**A.** Its Kd is 0.0187 nM and 0.0112 nM.

**Q.** And the Kd [4]?
**A.** The Kd was 0.017 nM.

B2: BMP10 GF-domain (bone morphogenetic protein 10 growth factor domain) (ligand)
chain: NAKGNYCKRTPLYIDFKEIGWDSWIIAPPGYEAYECRGVCNYPLAEHLTPTKHAIIQALVHLKNSQKASKACCVPTKLEPISILYLDKGVVTYKFKYEGMAVSECGCR
**Q.** With B2 as the binder, how does the koff [1] read?
**A.** Its koff is 5.31e-05 s⁻¹.

**Q.** And the koff [2]?
**A.** The koff was 8.5e-05 s⁻¹.

**Q.** What about the Kd [4] of the same binder?
**A.** Its Kd is 0.0557 nM.

B3: BMP6-GF WT (protein)
chain: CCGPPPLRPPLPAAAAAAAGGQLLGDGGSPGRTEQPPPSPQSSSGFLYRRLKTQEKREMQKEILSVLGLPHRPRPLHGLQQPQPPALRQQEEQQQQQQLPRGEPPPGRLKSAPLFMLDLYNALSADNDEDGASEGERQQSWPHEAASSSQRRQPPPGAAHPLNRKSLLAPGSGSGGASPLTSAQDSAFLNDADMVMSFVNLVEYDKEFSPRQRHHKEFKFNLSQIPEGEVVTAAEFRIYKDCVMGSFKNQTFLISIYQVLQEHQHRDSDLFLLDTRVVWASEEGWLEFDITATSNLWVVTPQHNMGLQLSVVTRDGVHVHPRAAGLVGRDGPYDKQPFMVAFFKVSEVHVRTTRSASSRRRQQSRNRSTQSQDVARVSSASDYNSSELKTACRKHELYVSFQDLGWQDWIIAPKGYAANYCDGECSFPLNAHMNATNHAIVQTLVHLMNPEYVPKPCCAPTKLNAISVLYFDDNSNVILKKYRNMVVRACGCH
modifications: disulfide-linked GF-domain homodimer. The text gives no BMP6 construct, source or limits (named only in a figure), so the human mature chain is assumed.
**Q.** For B3, which Kd [5] is on record?
**A.** The Kd was 19.2 nM.

B4: BMP9 GF-domain (bone morphogenetic protein 9 growth factor domain) (ligand)
chain: SAGAGSHCQKTSLRVNFEDIGWDSWIIAPKEYEAYECKGGCFFPLADDVTPTKHAIVQTLVHLKFPTKVGKACCVPTKLSPISVLYKDDMGVPTLKYHYEGMSVAECGCR
**Q.** Which results are given for B4?
**A.** koff [1]: 6.19e-05 s⁻¹; koff [2]: 8.37e-05 s⁻¹; Kd [4]: 0.0716 nM

B5: pro-BMP9 (prodomain-bound BMP9) (complex)
chain 1: KPLQSWGRGSAGGNAHSPLGVPGGGLPEHTFNLKMFLENVKVDFLRSLNLSGVPSQDKTRVEPPQYMIDLYNRYTSDKSTTPASNIVRSFSMEDAISITATEDFPFQKHILLFNISIPRHEQITRAELRLYVSCQNHVDPSHDLKGSVVIYDVLDGTDAWDSATETKTFLVSQDIQDEGWETLEVSSAVKRWVRSDSTKSKNKLEVTVESHRKGCDTLDISVPPGSRNLPFFVVFSNDHSSGTKETRLELREMISHEQESVLKKLSKDGSTEAGESSHEEDTDGHVAAGSTLARRKR
chain 2: SAGAGSHCQKTSLRVNFEDIGWDSWIIAPKEYEAYECKGGCFFPLADDVTPTKHAIVQTLVHLKFPTKVGKACCVPTKLSPISVLYKDDMGVPTLKYHYEGMSVAECGCR
**Q.** B5 was tested. Which koff [1] did it give?
**A.** Its koff is 4.84e-05 s⁻¹.

**Q.** And the koff [2]?
**A.** Its koff is 8.46e-05 s⁻¹.

**Q.** What about the Kd [3] of the same binder?
**A.** Its Kd is 0.0392 nM and 0.0612 nM.

**Q.** What about the Kd [5] of the same binder?
**A.** The Kd was 86.2 nM.

**Q.** And the Kd [4]?
**A.** The Kd was 0.0929 nM.
